Usually Kd stands for the free concentration of one partner at which half of the binding sites on the other are occupied at equilibrium, for simple one-to-one binding. Lower therefore signals tighter binding.

Some results are limits rather than exact numbers.

In one experiment the target is HLA-A*01:01. Nature of the experiment: IEDB peptide-MHC binding, purified MHC/direct/fluorescence; filed as Kd, often an IC50 or EC50 that approximates it; ≥ and ≤ were set here for values at or beyond the usual limits of such assays.
For the next experiment, the target named is HLA-A*02:01. The experiment is described as above.
The target in the next experiment is HLA-A*03:01. The experiment is described as above.
Experiment [1] deals with HLA-A*11:01. The experiment is described as above.
In a further experiment the target is HLA-A*26:01. The description is as above.
The target in experiment [2] is HLA-A*31:01. The description is as above.
In another experiment the target is HLA-A*69:01. The description is as above.
The next experiment concerns the target HLA-B*07:02. The experiment is described as above.
The target of the next experiment is HLA-B*08:01. Described as above. The note with it: source organism: Escherichia coli O157:H7.
For the next experiment, the target named is HLA-B*15:01. Described as above.
The next experiment addresses HLA-B*27:05. The description is as above.
A further experiment deals with HLA-B*35:01. Described as above.
The next experiment concerns the target HLA-B*40:01. Described as above. The note with it: source organism: Escherichia coli O157:H7.
The next experiment addresses HLA-B*44:02. The description is as above. As to conditions: source organism: Escherichia coli O157:H7.
The target in the next experiment is HLA-B*58:01. The experiment is described as above.
The target of a further experiment is HLA-A*24:03. Described as above.
Another experiment has as its target HLA-A*23:01. The description is as above.
In a further experiment the target is HLA-A*24:02. The description is as above.
The target of experiment [3] is HLA-A*26:02. Described as above. The note with it: source organism: Vibrio vulnificus CMCP6.
Another experiment addresses HLA-A*68:02. The experiment is described as above.
A further experiment concerns the target HLA-B*18:01. Described as above.
In the next experiment the target is HLA-B*39:01. The experiment is described as above.
The next experiment deals with HLA-B*57:01. The description is as above.
For experiment [4], the target named is HLA-A*11:01. The experiment in a line: IEDB peptide-MHC binding, purified MHC/competitive/fluorescence; filed as Kd, often an IC50 or EC50 that approximates it; ≥ and ≤ were set here for values at or beyond the usual limits of such assays. As to conditions: source organism: Vibrio vulnificus YJ016.
The target of experiment [5] is HLA-B*15:17. The description is as above. As to conditions: source organism: Vibrio vulnificus YJ016.
Experiment [6] has as its target HLA-A*31:01. Described as above. The note with it: source organism: Giardia lamblia ATCC 50803.
The next experiment deals with HLA-A*32:07. The description is as above. The note with it: source organism: Giardia lamblia ATCC 50803.
Another experiment deals with HLA-B*15:42. The experiment is described as above. As to conditions: source organism: Giardia lamblia ATCC 50803.
In a further experiment the target is HLA-B*45:06. The experiment is described as above. As to conditions: source organism: Giardia lamblia ATCC 50803.
The target in another experiment is HLA-B*83:01. The description is as above. As to conditions: source organism: Giardia lamblia ATCC 50803.
The next experiment concerns the target HLA-A*26:03. The experiment in a line: IEDB peptide-MHC binding, purified MHC/direct/fluorescence; filed as Kd, often an IC50 or EC50 that approximates it; ≥ and ≤ were set here for values at or beyond the usual limits of such assays. As to conditions: source organism: Campylobacter jejuni subsp. jejuni CG8486.
For another experiment, the target named is HLA-B*15:09. Described as above. As to conditions: source organism: Campylobacter jejuni subsp. jejuni CG8486.
The target of experiment [7] is HLA-B*15:17. The description is as above. As to conditions: source organism: Campylobacter jejuni.
Experiment [8] has as its target HLA-A*26:02. The experiment in a line: IEDB peptide-MHC binding, purified MHC/competitive/fluorescence; filed as Kd, often an IC50 or EC50 that approximates it; ≥ and ≤ were set here for values at or beyond the usual limits of such assays. The note with it: source organism: Campylobacter jejuni subsp. jejuni NCTC 11168 = ATCC 700819.
[9] abbreviates: source organism: Escherichia coli O157:H7.
Setting [10] is: source organism: Salmonella enterica subsp. enterica serovar Typhimurium.
Setting [11] is: source organism: Escherichia coli.
[12] abbreviates: source organism: Vibrio vulnificus.
Where [13] appears, read: source organism: Vibrio vulnificus CMCP6.
[14] abbreviates: source organism: Campylobacter jejuni.

As to ATISYRIKL, the Kd is at least 20 µM with HLA-A*01:01 (setting [9]); 0.106 µM in the experiment with HLA-A*02:01 (setting [10]); at least 20 µM in the experiment with HLA-A*03:01 (setting [9]); 0.0546 µM with HLA-A*11:01 [1] (setting [10]); 2.64 µM with HLA-A*26:01 (setting [10]); at least 20 µM with HLA-A*31:01 [2] (setting [9]). In addition, the Kd with HLA-A*69:01 (setting [10]) is 0.0558 µM; in the experiment with HLA-B*07:02 (setting [9]) it was at least 20 µM; in the experiment with HLA-B*08:01 it was at least 20 µM; with HLA-B*15:01 (setting [9]), at least 20 µM; with HLA-B*27:05 (setting [9]), at least 20 µM; with HLA-B*35:01 (setting [10]) it was 0.542 µM. Further, the Kd with HLA-B*40:01, with HLA-B*44:02 and with HLA-B*58:01 (setting [9]) was at least 20 µM each time.
Take DISPTNIPL: the Kd with HLA-A*01:01 (setting [9]) was at least 20 µM; in the experiment with HLA-A*02:01 (setting [9]), at least 20 µM; with HLA-A*03:01 (setting [9]) it was at least 20 µM; with HLA-A*11:01 [1] (setting [9]), at least 20 µM; with HLA-A*26:01 (setting [9]), 6.55 µM; in the experiment with HLA-A*31:01 [2] (setting [9]) it was at least 20 µM. In addition, the Kd was 0.0148 µM in the experiment with HLA-A*69:01 (setting [9]); at least 20 µM in the experiment with HLA-B*07:02 (setting [9]); at least 20 µM with HLA-B*08:01; at least 20 µM in the experiment with HLA-B*15:01 (setting [9]); at least 20 µM with HLA-B*27:05 (setting [9]); 0.105 µM with HLA-B*35:01 (setting [9]). Moreover, the Kd in the experiment with HLA-B*40:01, with HLA-B*44:02 and with HLA-B*58:01 (setting [9]) was at least 20 µM each time.
Turning to DPRDDLSGM, the Kd with HLA-A*01:01 (setting [9]), with HLA-A*02:01 (setting [9]), in the experiment with HLA-A*03:01 (setting [9]), with HLA-A*11:01 [1] (setting [9]), with HLA-A*24:03 (setting [11]) and in the experiment with HLA-A*26:01 (setting [9]) was at least 20 µM throughout. Also, the Kd was at least 20 µM with HLA-A*31:01 [2] (setting [9]); at least 20 µM with HLA-A*69:01 (setting [9]); 7.81 µM in the experiment with HLA-B*07:02 (setting [11]); at least 20 µM in the experiment with HLA-B*08:01; at least 20 µM in the experiment with HLA-B*15:01 (setting [9]); at least 20 µM with HLA-B*27:05 (setting [9]). The Kd was 0.0994 µM with HLA-B*35:01 (setting [11]), at least 20 µM with HLA-B*40:01, at least 20 µM with HLA-B*44:02 and at least 20 µM in the experiment with HLA-B*58:01 (setting [9]).
Turning to PHPVVVRTL, the Kd in the experiment with HLA-A*01:01 (setting [12]) is at least 20 µM; with HLA-A*02:01 (setting [12]), at least 20 µM; with HLA-A*03:01 (setting [12]) it was at least 20 µM; with HLA-A*23:01 (setting [12]) it was at least 20 µM; with HLA-A*24:02 (setting [12]), 18 µM; with HLA-A*24:03 (setting [12]), at least 20 µM. Moreover, the Kd with HLA-A*26:01 (setting [13]), with HLA-A*26:02 [3], in the experiment with HLA-A*31:01 [2] (setting [12]), in the experiment with HLA-A*68:02 (setting [12]), with HLA-A*69:01 (setting [12]) and with HLA-B*07:02 (setting [12]) was at least 20 µM in each case. In addition, the Kd with HLA-B*15:01 (setting [12]) was 0.775 µM; in the experiment with HLA-B*18:01 (setting [12]) it was at least 20 µM; in the experiment with HLA-B*27:05 (setting [12]) it was at least 20 µM; with HLA-B*39:01 (setting [13]), at least 20 µM; with HLA-B*57:01 (setting [12]), at least 20 µM; in the experiment with HLA-B*58:01 (setting [12]), at least 20 µM. In addition, the Kd in the experiment with HLA-A*11:01 [4] and in the experiment with HLA-B*15:17 [5] was at least 20 µM each time.
As for RLYPFGSYY, the Kd with HLA-A*03:01 (source organism: Giardia lamblia ATCC 50803) was at most 0.001 µM; with HLA-A*31:01 [6], 0.0313 µM; with HLA-A*32:07 it was 0.0041 µM; with HLA-B*15:42 it was at least 5 µM; with HLA-B*45:06 it was at least 5 µM; with HLA-B*83:01 it was at least 5 µM.
WFGHLASDW: the Kd with HLA-A*01:01 (setting [14]) was at least 20 µM; in the experiment with HLA-A*02:01 (setting [14]), at least 20 µM; with HLA-A*03:01 (setting [14]), at least 20 µM; with HLA-A*11:01 [1] (setting [14]) it was at least 20 µM; with HLA-A*23:01 (setting [14]) it was 0.34 µM; with HLA-A*24:02 (setting [14]), 1.6 µM. For the same sequence, the Kd with HLA-A*24:03 (setting [14]) is 0.0215 µM; in the experiment with HLA-A*26:03, at least 20 µM; with HLA-A*31:01 [2] (setting [14]) it was at least 20 µM; with HLA-A*68:02 (setting [14]) it was at least 20 µM; with HLA-A*69:01 (setting [14]), at least 20 µM; in the experiment with HLA-B*07:02 (setting [14]), at least 20 µM. Besides, the Kd with HLA-B*15:01 (setting [14]) was 7 µM; in the experiment with HLA-B*15:09, at least 20 µM; with HLA-B*15:17 [7] it was at least 20 µM; in the experiment with HLA-B*18:01 (setting [14]) it was at least 20 µM; with HLA-B*27:05 (setting [14]), at least 20 µM; with HLA-B*39:01 (source organism: Campylobacter jejuni subsp. jejuni CG8486) it was at least 20 µM. Moreover, the results for the Kd in the experiment with HLA-B*57:01 (setting [14]), with HLA-B*58:01 (setting [14]) and with HLA-A*26:02 [8] were at least 20 µM, 13 µM and at least 20 µM, respectively.
